Here are results for 2 molecules from US20230220047A1 (NORWEGIAN UNIVERSITY OF SCIENCE AND TECHNOLOGY NTNU, published 2023).

Ends that are not written are not given here.

The target of assay [1] is T1, IRAK1 (endogenous, human) (human, UniProt P51617 1-712, limits assumed).
T1 construct: SLAMF1 co-precipitated the ubiquitinated/phosphorylated form after LPS stimulation; also called interleukin 1 receptor-associated kinase 1; modified IRAK1
Put plainly: biotinylated peptide on NeutrAvidin beads, lysates of primary human macrophages, Western blot; may be indirect, within a complex. How it is done:
(§1) Precipitations were performed using biotinylated peptides on lysates of primary human macrophages stimulated with LPS (100 ng/ml) for 15, 30 or 60 min and unstimulated cells (A), and stimulated with LPS for 30 or 60 min, or CL075/TLR8 ligand for 15 or 30 min (B).
(§2) Immunoprecipitations with the biotinylated peptides Penetratin-biotin and Pep7-Penetratin-biotin (synthesised by custom order by GenScript) were performed by coating NeutrAvidin® Agarose Resin (Thermo Scientific) with peptide by incubating 40 μl 50% agarose slurry with 10 μl 2 mM peptides in 300 μl lysis buffer (for one precipitation reaction) (300 mM NaCl, 50 mM TrisHCl (pH 8.0), 1 mM EDTA, 1% Triton X100). Beads were washed 3 times with lysis buffer to remove unbound peptides before applying cellular extracts. Cell lysis was performed in the same lysis buffer, both for HEK293T cells and primary human macrophages. Precipitations were carried out by rotation at 4° C. for 30′-1 h, followed by four washes with lysis buffer. Agarose resin with precipitated protein complexes was heated in loading buffer 1×NuPAGE® LDS Sample Buffer (Thermo Fisher Scientific) containing 20 mM DTT and analysed by Western blotting.
(§3) To look for interactions between P7 and proteins in the Myddosome complex, biotinylated P7 peptides were pre-incubated with lysates of primary human macrophages (unstimulated and stimulated by LPS or CL075) and NeutrAvidin beads, followed by Western blot analysis of precipitates (FIG. 26). […] Upon stimulation with LPS, the complex of P7-interacting proteins attracted TRAF6 and TAK1 (FIG. 26A).
For orientation: In western blotting, separated proteins are transferred to a membrane and probed.

Assay [2] has as its target T2, Mal (endogenous, human) (human, UniProt P58753 1-221, limits assumed).
T2 construct: also called Mal/TIRAP; MyD88-adaptor-like protein
The description is as above. How it is done: as §1, §2, §3

Assay [3] addresses T3, MyD88 (endogenous, human) (human, UniProt Q99836 1-296).
T3 construct: also called Myeloid Differentiation primary response protein 88
The assay is described as above. The procedure:
as §1, §2, §3

The target of assay [4] is T4, IRAK4 (endogenous, human) (human, UniProt Q9NWZ3 1-460).
T4 construct: also called interleukin 1 receptor-associated kinase 4
T4 sequence (looked up): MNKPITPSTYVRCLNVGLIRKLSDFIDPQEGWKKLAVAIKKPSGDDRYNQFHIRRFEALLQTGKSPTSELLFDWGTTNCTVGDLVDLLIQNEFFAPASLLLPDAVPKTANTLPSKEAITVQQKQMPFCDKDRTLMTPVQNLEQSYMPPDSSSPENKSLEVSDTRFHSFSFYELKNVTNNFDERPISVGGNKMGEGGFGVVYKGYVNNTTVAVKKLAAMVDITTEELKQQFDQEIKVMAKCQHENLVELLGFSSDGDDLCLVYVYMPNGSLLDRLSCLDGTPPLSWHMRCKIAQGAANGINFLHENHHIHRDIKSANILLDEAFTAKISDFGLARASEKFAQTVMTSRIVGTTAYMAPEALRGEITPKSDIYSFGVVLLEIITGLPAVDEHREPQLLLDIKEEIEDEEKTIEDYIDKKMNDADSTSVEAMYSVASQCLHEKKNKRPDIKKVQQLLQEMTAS
The assay is described as above. How it is done:
as §1, §2, §3

The target of assay [5] is murine TRAM protein (overexpressed in HEK 293T cells) (murine, UniProt Q8BJQ4 2-232, limits assumed). Put plainly: C-terminally biotinylated peptide on Neutravidin agarose, lysates of HEK 293T cells overexpressing TRAM. The procedure:
as §2
(§4) Murine disease models are the most accessible and widely used pre-clinical model for testing new drugs. […] To test the potential interaction of the P7 peptide with murine TRAM vs. human TRAM protein, we performed precipitations of C-terminally biotinylated Pen or P7-Pen peptides.

Assay [6] deals with T5, human TRAM (endogenous in primary human macrophages, or overexpressed in HEK 293T cells) (human, UniProt Q86XR7 2-235, limits assumed).
T5 construct: also called TICAM2
The assay is described as above. How it is done: as §2, §4

The target of assay [7] is T6, TRAF6 (endogenous, human) (human, UniProt Q9Y4K3 1-522).
T6 sequence (looked up): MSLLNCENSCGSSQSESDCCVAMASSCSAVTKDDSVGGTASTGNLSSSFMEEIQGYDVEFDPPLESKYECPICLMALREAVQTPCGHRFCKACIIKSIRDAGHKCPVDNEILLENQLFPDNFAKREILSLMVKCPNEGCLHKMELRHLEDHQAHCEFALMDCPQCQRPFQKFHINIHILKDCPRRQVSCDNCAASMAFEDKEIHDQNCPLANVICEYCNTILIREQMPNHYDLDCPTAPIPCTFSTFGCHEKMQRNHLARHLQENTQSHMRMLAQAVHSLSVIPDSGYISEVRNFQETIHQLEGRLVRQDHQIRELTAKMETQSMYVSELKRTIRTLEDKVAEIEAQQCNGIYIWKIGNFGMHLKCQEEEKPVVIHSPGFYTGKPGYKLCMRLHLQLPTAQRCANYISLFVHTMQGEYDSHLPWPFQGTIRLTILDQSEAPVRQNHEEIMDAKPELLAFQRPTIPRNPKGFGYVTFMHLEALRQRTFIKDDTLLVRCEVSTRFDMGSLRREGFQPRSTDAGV
Description: biotinylated peptide on NeutrAvidin beads, lysates of LPS-stimulated primary human macrophages, Western blot; within a complex. How it is done:
as §1
as §2, with “blotting. […]” for “blotting.”

Assay [8] addresses T7, IRAK2 (endogenous, human) (human, UniProt O43187 1-625).
T7 sequence (looked up): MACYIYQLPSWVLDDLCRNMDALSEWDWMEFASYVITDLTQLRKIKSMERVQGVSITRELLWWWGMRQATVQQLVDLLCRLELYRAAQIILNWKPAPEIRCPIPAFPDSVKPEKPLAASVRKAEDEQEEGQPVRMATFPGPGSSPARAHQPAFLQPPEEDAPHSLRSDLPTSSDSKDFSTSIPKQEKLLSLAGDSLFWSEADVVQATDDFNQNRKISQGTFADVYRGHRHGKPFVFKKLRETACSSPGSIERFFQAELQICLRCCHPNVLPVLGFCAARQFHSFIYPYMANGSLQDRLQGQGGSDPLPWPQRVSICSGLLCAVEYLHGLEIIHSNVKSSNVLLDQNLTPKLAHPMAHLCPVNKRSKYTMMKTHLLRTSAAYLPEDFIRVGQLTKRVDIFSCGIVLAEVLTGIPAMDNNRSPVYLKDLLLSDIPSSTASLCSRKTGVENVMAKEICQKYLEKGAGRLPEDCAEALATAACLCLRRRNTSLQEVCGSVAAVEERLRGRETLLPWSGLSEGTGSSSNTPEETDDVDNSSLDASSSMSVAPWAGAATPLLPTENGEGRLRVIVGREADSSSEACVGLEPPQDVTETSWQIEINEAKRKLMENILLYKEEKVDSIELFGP
Description: endogenous co-precipitation with anti-SLAMF1 mAb (E-11) on magnetic beads from primary human macrophages, Western blot. How it is done:
The SLAMF1 and TRAM interaction was used as a positive control. Primary human macrophages were pre-treated with 15 μM peptides for 30 min, stimulated with LPS for another 15′, 30′ or 1 h, lysed and used for co-precipitation with anti-SLAMF1 mouse mAbs (E-11) covalently bound to magnetic beads, followed by Western blot analysis. Proteins in lysates were analysed as input control.
Indeed, a potential P7-Pen interaction motif is located within the protein kinase domain of IRAK4. Alignment of IRAKs with the TRAM-derived sequence that is targeted by the peptide identified sequences in IRAK1 and IRAK4 that are highly similar to the P7-interacting motif in TRAM/TICAM2 (not shown). […] IRAK4 also co-precipitated with GST-SLAMF1ct in GST pull down assays from lysates of primary human macrophages (data not shown).

Chain of murine TRAM protein (overexpressed in HEK 293T cells) (Q8BJQ4 2-232 limits assumed): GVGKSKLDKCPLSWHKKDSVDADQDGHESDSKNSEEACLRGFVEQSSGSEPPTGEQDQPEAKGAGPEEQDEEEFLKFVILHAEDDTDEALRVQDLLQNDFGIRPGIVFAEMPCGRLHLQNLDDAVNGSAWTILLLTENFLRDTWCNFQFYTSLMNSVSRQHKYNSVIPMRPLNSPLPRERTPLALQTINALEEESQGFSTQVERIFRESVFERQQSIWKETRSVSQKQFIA
T5 sequence (Q86XR7 2-235 limits assumed): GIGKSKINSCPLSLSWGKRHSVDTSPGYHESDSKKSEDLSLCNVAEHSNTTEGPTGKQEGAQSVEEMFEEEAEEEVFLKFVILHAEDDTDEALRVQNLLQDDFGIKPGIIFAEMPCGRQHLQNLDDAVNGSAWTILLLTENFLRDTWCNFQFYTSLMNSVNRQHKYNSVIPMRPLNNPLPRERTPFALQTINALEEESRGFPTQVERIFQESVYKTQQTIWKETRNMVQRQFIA
T2 sequence (P58753 whole entry): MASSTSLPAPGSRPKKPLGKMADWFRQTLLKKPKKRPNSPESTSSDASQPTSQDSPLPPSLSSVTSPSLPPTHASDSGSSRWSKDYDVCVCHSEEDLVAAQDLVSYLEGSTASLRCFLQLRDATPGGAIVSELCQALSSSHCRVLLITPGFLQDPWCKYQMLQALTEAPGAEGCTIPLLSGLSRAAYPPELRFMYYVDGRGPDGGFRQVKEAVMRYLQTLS
T1 sequence (P51617 whole entry): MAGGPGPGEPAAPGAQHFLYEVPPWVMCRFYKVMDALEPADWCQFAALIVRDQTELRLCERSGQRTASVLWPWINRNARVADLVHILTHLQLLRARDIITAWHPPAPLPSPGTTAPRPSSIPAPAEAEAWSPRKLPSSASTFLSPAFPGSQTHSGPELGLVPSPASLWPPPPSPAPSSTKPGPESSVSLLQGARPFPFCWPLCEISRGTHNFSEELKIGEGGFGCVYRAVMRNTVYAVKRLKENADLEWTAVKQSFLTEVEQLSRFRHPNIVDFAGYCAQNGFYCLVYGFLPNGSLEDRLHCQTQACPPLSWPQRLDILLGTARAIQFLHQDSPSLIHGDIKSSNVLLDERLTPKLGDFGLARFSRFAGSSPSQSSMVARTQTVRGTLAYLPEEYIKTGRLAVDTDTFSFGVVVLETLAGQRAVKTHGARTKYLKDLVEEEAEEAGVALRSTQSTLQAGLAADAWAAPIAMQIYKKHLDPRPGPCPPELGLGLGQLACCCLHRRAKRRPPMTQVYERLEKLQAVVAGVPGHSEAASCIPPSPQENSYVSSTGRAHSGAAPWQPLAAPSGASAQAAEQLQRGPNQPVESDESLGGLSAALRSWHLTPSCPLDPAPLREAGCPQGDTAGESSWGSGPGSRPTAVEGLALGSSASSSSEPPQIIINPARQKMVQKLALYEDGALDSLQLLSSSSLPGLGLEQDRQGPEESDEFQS
T3 sequence (Q99836 whole entry): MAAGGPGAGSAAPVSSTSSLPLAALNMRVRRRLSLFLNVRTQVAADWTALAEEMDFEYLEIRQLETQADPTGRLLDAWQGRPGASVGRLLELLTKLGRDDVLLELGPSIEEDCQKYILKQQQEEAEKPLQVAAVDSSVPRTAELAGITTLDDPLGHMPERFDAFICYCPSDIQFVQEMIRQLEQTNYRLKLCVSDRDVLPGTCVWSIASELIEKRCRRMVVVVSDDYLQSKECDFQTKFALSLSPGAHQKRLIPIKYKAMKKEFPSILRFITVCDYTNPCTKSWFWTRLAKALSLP

B1: Pep7-Penetratin-biotin (C-terminally biotinylated P7-Pen) (peptide)
peptide: ITVYASVTLTGRQIKIWFQNRRMKWKK-biotin
modifications: not fully specified (N-terminus); also: biotin attachment not given here
notes: Custom synthesis by GenScript; immobilised on NeutrAvidin agarose; also called P7-Pen peptide; biotinylated P7 peptides
On to B1, for which the binding result in assay [1], in assay [2], in assay [3], in assay [4], in assay [5] and in assay [6] was “binds” each time. For the same molecule, in assay [7], the binding result is given as “binds”.

B2: SLAMF1 (human, no tag stated; overexpressed in HEK293T cells or endogenous in primary human macrophages) (receptor, UniProt Q13291 21-335, looked up)
chain: ASYGTGGRMMNCPKILRQLGSKVLLPLTYERINKSMNKSIHIVVTMAKSLENSVENKIVSLDPSEAGPPRYLGDRYKFYLENLTLGIRESRKEDEGWYLMTLEKNVSVQRFCLQLRLYEQVSTPEIKVLNKTQENGTCTLILGCTVEKGDHVAYSWSEKAGTHPLNPANSSHLLSLTLGPQHADNIYICTVSNPISNNSQTFSPWPGCRTDPSETKPWAVYAGLLGGVIMILIMVVILQLRRRGKTNHYQTTVEKKSLTIYAQVQKPGPLQKKLDSFPAQDPCTTIYVAATEPVPESVQETNSITVYASVTLPES
notes: Used for SLAMF1 in the TRAM^Flag and Mal^Flag co-precipitations (no tag stated there) and for endogenous SLAMF1 precipitated with anti-SLAMF1 mAb E-11; also called SLAMF1 wt; SLAMF1 protein
B2: the binding result in assay [8] was “no binding”.
